The values that follow come from patent publication US20040052799A1, “Nucleic acid and amino acid sequences relating to Helicobacter pylori for diagnostics and therapeutics” (Astra Aktiebolag, priority 1996, published 2004).

The target of data set [1] is T1, H. pylori MurC (Helicobacter pylori, UniProt Q9ZLL2).
T1 sequence (Q9ZLL2 1-449): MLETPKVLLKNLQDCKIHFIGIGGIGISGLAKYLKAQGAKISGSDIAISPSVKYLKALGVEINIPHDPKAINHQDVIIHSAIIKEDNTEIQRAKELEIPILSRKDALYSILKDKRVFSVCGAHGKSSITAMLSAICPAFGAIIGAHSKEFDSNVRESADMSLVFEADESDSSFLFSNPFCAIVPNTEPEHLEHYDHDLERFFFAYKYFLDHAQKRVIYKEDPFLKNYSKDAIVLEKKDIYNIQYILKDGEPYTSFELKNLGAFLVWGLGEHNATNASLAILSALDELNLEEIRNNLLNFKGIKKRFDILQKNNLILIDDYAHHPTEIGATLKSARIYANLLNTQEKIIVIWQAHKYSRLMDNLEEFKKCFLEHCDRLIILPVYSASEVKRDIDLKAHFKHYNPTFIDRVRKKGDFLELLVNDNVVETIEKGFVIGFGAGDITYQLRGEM
The experiment in a line: MurC continuous assay, ADP formation coupled to pyruvate kinase/lactate dehydrogenase. Format: biochemical. The note with it: 500 μM UDP-N-acetylmuramate, 1 mM L-alanine, 1 mM ATP, 0.0018 mg/ml MurC, 37° C. As to the method: Purified H. pylori MurC was assayed using a continuous assay by coupling ADP formation with NADH oxidation by the pyruvate kinase/lactate dehydrogenase enzyme couple. Assay conditions were as follows: 100 mM Tris·HCl pH 8.0, 2.5 mM 2-mercaptoethanol, 20 mM KCl, 10 mM DTT, 2 mM MgCl2, 10 mM PEP, 0.15 mM NADH, 3.5 units of pyruvate kinase, 5.5 units of lactate dehydrogenase (Sigma), 500 μM UDP-N-acetylmuramate, 1 mM L-alanine, 1 mM ATP and 0.0018 mg/ml MurC at 37° C. […] Previously boiled enzyme could not support ADP formation. Steady state analysis of the dependence of reaction velocity on substrate concentration was done by varying the concentration of a single substrate in concentrations ranging from 0.5 to 5 times Km while holding the other two substrates constant at 5 times Km concentrations.

In data set [2] the target is T2, H. pylori glutamate racemase (murI gene product) (Helicobacter pylori, UniProt Q9ZLT0).
T2 construct: made in house; host or cells: E. coli BL21(DE3) carrying pET-23-murI and pACYC-groE (GroES/GroEL co-expressed)
T2 sequence (Q9ZLT0 1-255): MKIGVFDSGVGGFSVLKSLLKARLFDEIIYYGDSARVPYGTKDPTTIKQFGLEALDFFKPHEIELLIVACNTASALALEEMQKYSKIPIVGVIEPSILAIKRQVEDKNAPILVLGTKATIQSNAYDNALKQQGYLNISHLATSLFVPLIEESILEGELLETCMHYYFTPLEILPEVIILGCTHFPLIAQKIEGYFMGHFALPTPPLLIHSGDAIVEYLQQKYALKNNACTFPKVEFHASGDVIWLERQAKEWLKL
The experiment in a line: Glutamate racemase activity, conversion of D-glutamate to L-glutamate (two enzyme and single enzyme coupled assays). It counts as biochemical. Particulars: purified recombinant enzyme. As to the method: The activity of glutamate racemase, interconversion of the enantiomers of glutamic acid, was measured using D-glutamic acid as substrate. The method of Gallo and Knowles (Gallo, K. A. and Knowles, J. R., 1993, Biochmistry 32, 3981-3990) that was used to measure the glutamate racemase activity of Lactobacillus fermenti was adapted for the measurement of glutamate racemase activity of the H. pylori murI gene product isolated as a recombinant protein from E. coli. […] Initial rates were determined by following the increase in absorbance at 500 nm in a reaction volume of 200 μl containing 50 mM Tris-HCl, pH 7.8, 4% v/v glycerol, 10 mM NAD, 2 mM INT, 60 Units/ml L-glutamate dehydrogenase, 5 Units/ml diaphorase, and varying concentrations of either substrate (from 0.063 mM to 250 mM D-glutamic acid) or purified enzyme (from 1 μg to 50 μg). After a preincubation of all reagents except either the substrate (D-glutamic acid) or the enzyme (murI gene product) for a period of 5 minutes, reactions were initiated by adding the missing ingredient (i.e., the enzyme or the subtrate, as required), and the increase in optical density at 500 nm was measured in a Microplate Spectophotometer System (Molecular Devices, Spectra MAX 250). Measurements were followed for 20 minutes, and initial velocities were derived by calculating the maximum slope for the absorbance increases. […]

The target in data set [3] is H. pylori Asd (Helicobacter pylori, UniProt Q9ZK28). The experiment in a line: Asd assay, reverse reaction, NADPH formation. How it is done: The enzymatic activity of purified His-tagged H. pylori Asd (SEQ ID NO: 6545) was characterized by assaying the reverse reaction of phosphorylation of L-aspartate-β-semialdehyde (ASA) to L-p-aspartyl phosphate, with concomitant reduction of NADP^+ to NADPH. The formation of NADPH was detected by its absorbance, 340 nm, or by its fluorescence, excitation =340 nm, emission 455 nm.
ASA in 4 N HCl was prepared daily for use in Asd assays by partial neutralization with addition of 1.0 equivalent of […], with a resulting pH=1-2. The amount of ASA was determined enzymatically by complete reaction in the presence of excess NADP^+and phosphate. […] Assays were performed in the following buffer: 200 mM HEPES, 0.3 mM NADP^+, 30 mM NaH2PO4, 1.0 mM DTT, pH 7.5 or pH 8.0. ASA was used in the assay at concentrations of 5-165 μM by diluting the partially-neutralized ASA stock into the assay 10-200 fold, leading to a decrease in pH of 0.1 units or less. Reaction was initiated with the addition of enzyme to a final concentration of 3.5-70 nM.

B1: H. pylori MurC: His-tagged H. pylori MurC (SEQ ID NO: 7607) purified from E. coli (protein, listed as Helicobacter pylori)
chain: MLETPKVLLKNLQDCKIHFIGIGGIGISGLAKYLKAQGAKISGSDIAISPSVKYLKALGVEINIPHDPKAINHQDVIIHSAIIKEDNTEIQRAKELEIPILSRKDALYSILKDKRVFSVCGAHGKSSITAMLSAICPAFGAIIGAHSKEFDSNVRESADMSLVFEADESDSSFLFSNPFCAIVPNTEPEHLEHYDHDLERFFFAYKYFLDHAQKRVIYKEDPFLKNYSKDAIVLEKKDIYNIQYILKDGEPYTSFELKNLGAFLVWGLGEHNATNASLAILSALDELNLEEIRNNLLNFKGIKKRFDILQKNDLILIDDYAHHPTEIGTTLKSARIYANLLNTQEKIIVIWQAHKYSRLMDNLEEFKKCFLEHCDRLIILPVYSASEVKRDIDLKAHFKHYNPTFIDRVRKKGDFLELLVNDNVVETIEKGFVIGFGAGDITYQLRGEM
modifications: His tag; misc_feature (B) LOCATION 1...449; hypothetical: YES
B1 showed a specific activity in data set [1] of 5900 nmol/min/mg.

B2: H. pylori glutamate racemase: purified recombinant H. pylori glutamate racemase (SEQ ID NO: 7635) (protein, listed as Helicobacter pylori)
chain: MKIGVFDSGVGGFSVLKSLLKARLFDEIIYYGDSARVPYGTKDPTTIKQFGLEALDFFKPHEIELLIVACNTASALALEEMQKYSKIPIVGVIEPSILAIKRQVEDKNAPILVLGTKATIQSNAYDNALKQQGYLNISHLATSLFVPLIEESILEGELLETCMHYYFTPLEILPEVIILGCTHFPLIAQKIEGYFMGHFALPTPPLLIHSGDAIVEYLQQKYALKNNACTFPKVEFHASGDVIWLERQAKEWLKL
modifications: misc_feature (B) LOCATION 1...255; hypothetical: YES
As a reminder, the kcat is the maximal rate divided by the concentration of active sites. Regarding B2, the kcat in data set [2] was found to be 0.143 s⁻¹. In addition, the Vmax in data set [2] (D-glutamate substrate) is on record as about 300 nmoles/min/mg protein.

B3: H. pylori Asd: purified His-tagged H. pylori Asd (SEQ ID NO: 6545) (protein, listed as Helicobacter pylori)
chain: MKTYNVAIVGASGAVGQELIKGLENSFFPIKKFVPLASARSAGKKIRAFNKDYEILETTHEVFEKEEIDIAFFSAGGSVSEEFAISASKTALVIDNTSFFRLNKDVPLVVPEINAQEIFNAPLNIIANPNCSTIQMTQILNPLHLHFKIKSVIVSTYQAVSGAGNKGIESLKNELKTALEHLEKDPAIDLNQVLQAGAFAYPIAFNAIAHIDTFKENGYTKEELKMVHETHKIMGVDFPISATCVRVPVLRSHSESLSIAFEKEFDLKEVYEVLKNAPSVVVCDDPSHNLYPTPLKASHTDSVFIGRLRKDLFDKKTLHGFCVADQLRVGAATNALKIALHYIKNA
modifications: His tag; misc_feature (B) LOCATION 1...346; hypothetical: YES
Regarding B3, the “decrease of kcat relative to the E. coli enzyme” value in data set [3] is “about 5 fold”. The “effect of ionic strength on activity” value in data set [3] (ionic strength as high as 0.7 M) is listed as “unaffected”. Also, the kcat in data set [3] (pH 8.0) came to 5.4 s⁻¹.
